Substrate in this series: O=[N+]([O-])c1ccc(O[C@@H]2O[C@H](CO)[C@@H](O)[C@H](O)[C@H]2O)cc1
Briefly: purified protein.

[1] abbreviates: WT-1 preparation, absorbance followed 1 h.
Where [2] appears, read: tested with WT-1, error exceeds value, poorly determined fit.

B1: β-glucosidase B (BglB) (Paenibacillus polymyxa) (protein)
chain: MSENTFIFPATFMWGTSTSSYQIEGGTDEGGRTPSIWDTFCQIPGKVIGGDCGDVACDHFHHFKEDVQLMKQLGFLHYRFSVAWPRIMPAAGIINEEGLLFYEHLLDEIELAGLIPMLTLYHWDLPQWIEDEGGWTQRETIQHFKTYASVIMDRFGERINWWNTINEPYCASILGYGTGEHAPGHENWREAFTAAHHILMCHGIASNLHKEKGLTGKIGITLNMEHVDAASERPEDVAAAIRRDGFINRWFAEPLFNGKYPEDMVEWYGTYLNGLDFVQPGDMELIQQPGDFLGINYYTRSIIRSTNDASLLQVEQVHMEEPVTDMGWEIHPESFYKLLTRIEKDFSKGLPILITENGAAMRDELVNGQIEDTGRHGYIEEHLKACHRFIEEGGQLKGYFVWSFLDNFEWAWGYSKRFGIVHINYETQERTPKQSALWFKQMMAKNGF
What is called Km is the concentration of substrate that gives half-maximal velocity. The kcat is the number of substrate molecules converted per active site and unit of time at saturation. With B1, under setting [1], the Michaelis constant (Km) worked out at 5.4 ± 0.88 mM and the kcat was 0.6198 ± 0.056 s⁻¹.

B2: β-glucosidase B (BglB) (Paenibacillus polymyxa; W123R) (protein)
chain: MSENTFIFPATFMWGTSTSSYQIEGGTDEGGRTPSIWDTFCQIPGKVIGGDCGDVACDHFHHFKEDVQLMKQLGFLHYRFSVAWPRIMPAAGIINEEGLLFYEHLLDEIELAGLIPMLTLYHRDLPQWIEDEGGWTQRETIQHFKTYASVIMDRFGERINWWNTINEPYCASILGYGTGEHAPGHENWREAFTAAHHILMCHGIASNLHKEKGLTGKIGITLNMEHVDAASERPEDVAAAIRRDGFINRWFAEPLFNGKYPEDMVEWYGTYLNGLDFVQPGDMELIQQPGDFLGINYYTRSIIRSTNDASLLQVEQVHMEEPVTDMGWEIHPESFYKLLTRIEKDFSKGLPILITENGAAMRDELVNGQIEDTGRHGYIEEHLKACHRFIEEGGQLKGYFVWSFLDNFEWAWGYSKRFGIVHINYETQERTPKQSALWFKQMMAKNGF
On to B2, for which, under setting [2], the Michaelis-Menten constant (Km) is on record as 49.63 ± 324.02 mM and the kcat was determined as 0.00025 ± 0.0013 s⁻¹.

B3: β-glucosidase B (BglB) (Paenibacillus polymyxa; W438D) (protein)
chain: MSENTFIFPATFMWGTSTSSYQIEGGTDEGGRTPSIWDTFCQIPGKVIGGDCGDVACDHFHHFKEDVQLMKQLGFLHYRFSVAWPRIMPAAGIINEEGLLFYEHLLDEIELAGLIPMLTLYHWDLPQWIEDEGGWTQRETIQHFKTYASVIMDRFGERINWWNTINEPYCASILGYGTGEHAPGHENWREAFTAAHHILMCHGIASNLHKEKGLTGKIGITLNMEHVDAASERPEDVAAAIRRDGFINRWFAEPLFNGKYPEDMVEWYGTYLNGLDFVQPGDMELIQQPGDFLGINYYTRSIIRSTNDASLLQVEQVHMEEPVTDMGWEIHPESFYKLLTRIEKDFSKGLPILITENGAAMRDELVNGQIEDTGRHGYIEEHLKACHRFIEEGGQLKGYFVWSFLDNFEWAWGYSKRFGIVHINYETQERTPKQSALDFKQMMAKNGF
For the protein B3, for the setting “tested with WT-2”, the Km was 10.28 ± 2.14 mM and the kcat turned out to be 0.1765 ± 0.0275 s⁻¹.

B4: β-glucosidase B (BglB) (Paenibacillus polymyxa; Q22T) (protein)
chain: MSENTFIFPATFMWGTSTSSYTIEGGTDEGGRTPSIWDTFCQIPGKVIGGDCGDVACDHFHHFKEDVQLMKQLGFLHYRFSVAWPRIMPAAGIINEEGLLFYEHLLDEIELAGLIPMLTLYHWDLPQWIEDEGGWTQRETIQHFKTYASVIMDRFGERINWWNTINEPYCASILGYGTGEHAPGHENWREAFTAAHHILMCHGIASNLHKEKGLTGKIGITLNMEHVDAASERPEDVAAAIRRDGFINRWFAEPLFNGKYPEDMVEWYGTYLNGLDFVQPGDMELIQQPGDFLGINYYTRSIIRSTNDASLLQVEQVHMEEPVTDMGWEIHPESFYKLLTRIEKDFSKGLPILITENGAAMRDELVNGQIEDTGRHGYIEEHLKACHRFIEEGGQLKGYFVWSFLDNFEWAWGYSKRFGIVHINYETQERTPKQSALWFKQMMAKNGF
In the case of B4, under setting [2], the Michaelis constant (Km) was determined as 99.02 ± 247.88 mM and the kcat stood at 0.00433 ± 0.001 s⁻¹.

B5: β-glucosidase B (BglB) (Paenibacillus polymyxa; F155G) (protein)
chain: MSENTFIFPATFMWGTSTSSYQIEGGTDEGGRTPSIWDTFCQIPGKVIGGDCGDVACDHFHHFKEDVQLMKQLGFLHYRFSVAWPRIMPAAGIINEEGLLFYEHLLDEIELAGLIPMLTLYHWDLPQWIEDEGGWTQRETIQHFKTYASVIMDRGGERINWWNTINEPYCASILGYGTGEHAPGHENWREAFTAAHHILMCHGIASNLHKEKGLTGKIGITLNMEHVDAASERPEDVAAAIRRDGFINRWFAEPLFNGKYPEDMVEWYGTYLNGLDFVQPGDMELIQQPGDFLGINYYTRSIIRSTNDASLLQVEQVHMEEPVTDMGWEIHPESFYKLLTRIEKDFSKGLPILITENGAAMRDELVNGQIEDTGRHGYIEEHLKACHRFIEEGGQLKGYFVWSFLDNFEWAWGYSKRFGIVHINYETQERTPKQSALWFKQMMAKNGF
Turning to B5, where the note is “tested with WT-1”, the Km worked out at 6.10 mM and the catalytic constant (kcat) was determined as 0.3093 s⁻¹.

B6: β-glucosidase B (BglB) (Paenibacillus polymyxa; Y169M) (protein)
chain: MSENTFIFPATFMWGTSTSSYQIEGGTDEGGRTPSIWDTFCQIPGKVIGGDCGDVACDHFHHFKEDVQLMKQLGFLHYRFSVAWPRIMPAAGIINEEGLLFYEHLLDEIELAGLIPMLTLYHWDLPQWIEDEGGWTQRETIQHFKTYASVIMDRFGERINWWNTINEPMCASILGYGTGEHAPGHENWREAFTAAHHILMCHGIASNLHKEKGLTGKIGITLNMEHVDAASERPEDVAAAIRRDGFINRWFAEPLFNGKYPEDMVEWYGTYLNGLDFVQPGDMELIQQPGDFLGINYYTRSIIRSTNDASLLQVEQVHMEEPVTDMGWEIHPESFYKLLTRIEKDFSKGLPILITENGAAMRDELVNGQIEDTGRHGYIEEHLKACHRFIEEGGQLKGYFVWSFLDNFEWAWGYSKRFGIVHINYETQERTPKQSALWFKQMMAKNGF
Take B6: where the note is “tested with WT-2”, the Km was determined as 22.2 ± 5.53 mM and the kcat was 0.8428 ± 0.2272 s⁻¹.

B7: β-glucosidase B (BglB) (Paenibacillus polymyxa; V401A) (protein)
chain: MSENTFIFPATFMWGTSTSSYQIEGGTDEGGRTPSIWDTFCQIPGKVIGGDCGDVACDHFHHFKEDVQLMKQLGFLHYRFSVAWPRIMPAAGIINEEGLLFYEHLLDEIELAGLIPMLTLYHWDLPQWIEDEGGWTQRETIQHFKTYASVIMDRFGERINWWNTINEPYCASILGYGTGEHAPGHENWREAFTAAHHILMCHGIASNLHKEKGLTGKIGITLNMEHVDAASERPEDVAAAIRRDGFINRWFAEPLFNGKYPEDMVEWYGTYLNGLDFVQPGDMELIQQPGDFLGINYYTRSIIRSTNDASLLQVEQVHMEEPVTDMGWEIHPESFYKLLTRIEKDFSKGLPILITENGAAMRDELVNGQIEDTGRHGYIEEHLKACHRFIEEGGQLKGYFAWSFLDNFEWAWGYSKRFGIVHINYETQERTPKQSALWFKQMMAKNGF
B7: for the setting “tested with WT-2”, the Michaelis constant (Km) was determined as 8.27 ± 1.24 mM and the kcat was determined as 0.341 ± 0.0215 s⁻¹.

(Values after publication doi:10.1101/2019.12.23.887380v2.)
